Experimental findings from paper PMC10831248, “Characterization of membrane protein interactions by peptidisc-mediated mass photometry” (iScience, 2024) are described below.

Data set [1] concerns the target T1, vitamin B12 ABC transporter BtuCD, reconstituted in peptidiscs (E. coli, UniProt P06609 1-326; P06611 1-249).
T1 chain 1: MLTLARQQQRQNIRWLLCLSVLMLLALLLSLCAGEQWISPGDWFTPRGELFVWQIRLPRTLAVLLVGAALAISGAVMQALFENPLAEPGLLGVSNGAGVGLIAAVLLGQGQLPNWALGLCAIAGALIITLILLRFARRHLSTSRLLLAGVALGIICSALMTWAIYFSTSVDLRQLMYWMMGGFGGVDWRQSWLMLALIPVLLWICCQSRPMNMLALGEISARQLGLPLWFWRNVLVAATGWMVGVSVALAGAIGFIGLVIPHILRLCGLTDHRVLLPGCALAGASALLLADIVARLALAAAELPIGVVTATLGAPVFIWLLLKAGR
T1 chain 2: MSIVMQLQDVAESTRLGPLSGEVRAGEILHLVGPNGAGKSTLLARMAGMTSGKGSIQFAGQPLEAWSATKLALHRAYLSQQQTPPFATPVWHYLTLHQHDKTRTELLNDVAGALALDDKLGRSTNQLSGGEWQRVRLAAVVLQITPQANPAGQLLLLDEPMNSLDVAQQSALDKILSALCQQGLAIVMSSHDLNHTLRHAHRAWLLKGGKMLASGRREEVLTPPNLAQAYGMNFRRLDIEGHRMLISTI
As to the kind of experiment: without ATP.

In data set [2] the target is T1, vitamin B12 ABC transporter BtuCD, …. As to the kind of experiment: 1 mM ATP.
The data set “mass photometry” concerns the molecule itself. As to the kind of experiment: mass photometry.
Data set [3] concerns the molecule itself. The data set is described as follows: mass photometry; SEC fractions of His-tagged membrane proteins purified on Ni-NTA and reconstituted into peptidiscs, diluted 100-fold in PBS to ~5-20 nM; main species: subunits together in the native oligomer or complex in one disc.

B1: periplasmic B12 binding protein BtuF (natural protein)
chain: APRVITLSPANTELAFAAGITPVGVSSYSDYPPQAQKIEQVSTWQGMNLERIVALKPDLVIAWRGGNAERQVDQLASLGIKVMWVDATSIEQIANALRQLAPWSPQPDKAEQAAQSLLDQYAQLKAQYADKPKKRVFLQFGINPPFTSGKESIQNQVLEVCGGENIFKDSRVPWPQVSREQVLARSPQAIVITGGPDQIPKIKQYWGEQLKIPVIPLTSDWFERASPRIILAAQQLCNALSQVD
Take B1: the Kd in data set [1] was determined as 48 nM; in data set [2], 25 nM.

B2: mechanosensitive channel of large conductance (MscL) from Mycobacterium tuberculosis (natural protein)
chain: MLKGFKEFLARGNIVDLAVAVVIGTAFTALVTKFTDSIITPLINRIGVNAQSDVGILRIGIGGGQTIDLNVLLSAAINFFLIAFAVYFLVVLPYNTLRKKGEVEQPGDTQVVLLTEIRDLLAQTNGDSPGRHGGRGTPSPTDGPRASTESQ
notes: MscL, large-conductance mechanosensitive channel, Mycobacterium tuberculosis; also called M. Tb MscL; not shown: His6, C-terminal, kept
Regarding B2, in “mass photometry”, the binding result is on record as “binds”.

B3: trimeric drug efflux pump AcrB (natural protein, E. coli, UniProt P31224 1-1049, looked up)
chain: MPNFFIDRPIFAWVIAIIIMLAGGLAILKLPVAQYPTIAPPAVTISASYPGADAKTVQDTVTQVIEQNMNGIDNLMYMSSNSDSTGTVQITLTFESGTDADIAQVQVQNKLQLAMPLLPQEVQQQGVSVEKSSSSFLMVVGVINTDGTMTQEDISDYVAANMKDAISRTSGVGDVQLFGSQYAMRIWMNPNELNKFQLTPVDVITAIKAQNAQVAAGQLGGTPPVKGQQLNASIIAQTRLTSTEEFGKILLKVNQDGSRVLLRDVAKIELGGENYDIIAEFNGQPASGLGIKLATGANALDTAAAIRAELAKMEPFFPSGLKIVYPYDTTPFVKISIHEVVKTLVEAIILVFLVMYLFLQNFRATLIPTIAVPVVLLGTFAVLAAFGFSINTLTMFGMVLAIGLLVDDAIVVVENVERVMAEEGLPPKEATRKSMGQIQGALVGIAMVLSAVFVPMAFFGGSTGAIYRQFSITIVSAMALSVLVALILTPALCATMLKPIAKGDHGEGKKGFFGWFNRMFEKSTHHYTDSVGGILRSTGRYLVLYLIIVVGMAYLFVRLPSSFLPDEDQGVFMTMVQLPAGATQERTQKVLNEVTHYYLTKEKNNVESVFAVNGFGFAGRGQNTGIAFVSLKDWADRPGEENKVEAITMRATRAFSQIKDAMVFAFNLPAIVELGTATGFDFELIDQAGLGHEKLTQARNQLLAEAAKHPDMLTSVRPNGLEDTPQFKIDIDQEKAQALGVSINDINTTLGAAWGGSYVNDFIDRGRVKKVYVMSEAKYRMLPDDIGDWYVRAADGQMVPFSAFSSSRWEYGSPRLERYNGLPSMEILGQAAPGKSTGEAMELMEQLASKLPTGVGYDWTGMSYQERLSGNQAPSLYAISLIVVFLCLAALYESWSIPFSVMLVVPLGVIGALLAATFRGLTNDVYFQVGLLTTIGLSAKNAILIVEFAKDLMDKEGKGLIEATLDAVRMRLRPILMTSLAFILGVMPLVISTGAGSGAQNAVGTGVMGGMVTATVLAIFFVPVFFVVVRRRFSRKNEDIEHSHTVDHH
notes: AcrB, multidrug efflux pump subunit, E. coli; It is carried in a peptidisc; source: E. coli C43(DE3), purified (DDM extraction, Ni-NTA, reconstituted into peptidiscs, SEC); not shown: His6, C-terminal, kept
With B3, the binding result in data set [3] is given as “binds”.

For orientation: Kd means the constant that tells how readily two partners part at equilibrium.
